In patent WO2007042289A2 (dated 2007):

Assays:
[1] = biological target: T1, EGFR expressed on cells and on A431 derived membrane vesicles (human, UniProt P00533 25-1210)
T1 construct: whole, on cells; Used for assays on whole cells and on immobilised A431 membrane vesicles; also called EGF receptor; EGFR harboring A431 vesicles

purified EGFR (Sigma) = biological target: T2, purified EGFR (Sigma) (human, UniProt P00533 25-1210, limits assumed)
T2 construct: Bought; purified from human A431 cells; also called solid phase coated EGFR

[2] = biological target: T3, recombinant human IGF-IR (rhIGFIR) (human, UniProt P08069 31-932, limits assumed); test: SPR (BIAcore), immobilized IGF-IR
T3 construct: Bought; also called immobilized IGF-IR

B1: PMP9C1 (VHH)
VHH: EVQLVESGGGLVQAGGSLRLSCAASGRTFSGFAMGWFRQAPGKEREFVAAISWSGGSLLYVDSVKGRFTISRDNAKNTVHLQMNSLKPGDTAVYYCAAMVGPPPRSLDYGLGNHYEYDYWGQGTQVTVSS
notes: Anti-EGFR Nanobody; tag not described; also called Nanobody family X; Type C Nanobody
B1: binds [1].

B2: PMP7A5 (VHH)
VHH: EVQLVESGGGLVQAGGSLRLSCAASDRTFSSNNMGWFRQAPGKEREFVAAIGWGGLETHYSDSVKGRFTISRDNAKNTVYLQMNSLKPEDTARYYCAVSSTRTVIYTLPRMYNYWGQGTQVTVSS
notes: Anti-EGFR Nanobody; tag not described; also called EGFRPMP7A5
B2 showed a koff (purified EGFR (Sigma)) of at most 0.0017 s⁻¹.

B3: PMP7E12 (VHH)
VHH: EVQLVESGGGLVQAGGSLRLSCTASGRTFENNAMAWFRQAAGKEREFVAGFSGSGGATYYAHSVEGRFTISRDNAKNTVDLQMNSLSLEDTAVYLCAARRKSGEVVFTIPARYDYWGQGTQVTVSS
notes: Anti-EGFR Nanobody
Work on B3 yielded a koff (purified EGFR (Sigma)) of at most 0.0017 s⁻¹.

B4: PMP1C7 (VHH)
VHH: QVKLEESGGGLVQAGGSLRLSCVASGRTFSRTAMAWFRQAPGKEREFVATITWNSGTTRYADSVKGRFFISKDSAKNTIYLEMNSLEPEDTAVYYCAATAAAVITPTRGYYNYWGQGTQVTVSS
notes: Anti-IGF-IR Nanobody; tag not described; also called IGFRPMP1C7
In the case of B4, the koff [2] is reported as 0.0019 s⁻¹.

B5: 27-10-E8 (VHH)
VHH: EVQLVESGGGLVQAGGSLRLSCAASGRTFSTYTMAWFRQAPGKEREFVQGISRSDGGTYDADSVKGRFTISRDNAKNTVYLQMNSLKPEDTAVYFCAAASVKLVYVNPNRYSYWGQGTQVTVSS
notes: Anti-EGFR Nanobody, tested as periplasmic extract or IMAC purified protein; tag not described; also called Type A Nanobody
Work on B5 yielded a koff (purified EGFR (Sigma)) of at most 0.0017 s⁻¹.

B6: PMP38G7 (VHH)
VHH: EVQLVESGGGLVQAGGSLRLSCAASGRTFSSYVMGWFRQATGKEREFVATIAWDSGSTYYADSVKGRFTISRDNAKNTVHLQMNSLKPEDTAVYYCAASYNVYYNNYYYPISRDEYDYWGQGTQVTVSS
notes: also called Nanobody family VIII
B6 showed a koff (purified EGFR (Sigma)) of at most 0.0017 s⁻¹.
